Assays:
Experiment in all cases: two-hybrid
[1] = biological target: DIG1b (DIG10.3 E83R), charge swap design
[2] = biological target: DIG10.3 monomer (DIG0), computationally designed digoxigenin-binding protein
[3] = biological target: PRO0 (DIG10.3 Y34F, Y99F, Y101F), progesterone ligand-binding domain
[4] = biological target: DIG2b (DIG10.3 I102A), knob-in-hole design

## DIG1a (DIG10.3 R116E), charge swap design (designed binder)
[1]
  fold increase in reporter activation with digoxigenin: > 500 fold

## DIG10.3 monomer (DIG0), computationally designed digoxigenin-binding protein (designed binder)
[2]
  fold increase in luciferase activity with 50 uM digoxigenin: 20 fold

## PRO0 (DIG10.3 Y34F, Y99F, Y101F), progesterone ligand-binding domain (designed binder)
[3]
  fold increase in reporter activity with 1 uM progesterone: 200 fold

## DIG1 (DIG10.3 E83V) (designed binder)
[3]
  fold luciferase activity with both ligands over either ligand alone: 20 fold
[2]
  fold activation of the luciferase reporter with digoxigenin: 400 fold

## DIG2a (DIG10.3 I102M, V104F), knob-in-hole design (designed binder)
[4]
  fold increase in reporter activation with digoxigenin: > 500 fold

Reference: article PMC6317713
